Measurements from the supplement of paper PMC12764529.
± gives the half width of the 95% confidence interval.

Experiments:
[1] = folding stability dG unfold from chymotrypsin proteolysis; higher = more stable
Protocol: (§1)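 Folding stability of de novo designed mini-proteins (<80 aa, no Cys; designed by TrROS, TrMRF, ProteinMPNN and the joint model) was measured by cDNA display proteolysis with trypsin and chymotrypsin. Each protease was used at 11 concentrations in a threefold dilution series plus a no-protease condition. K50 was inferred by Bayesian fitting of sequencing counts, and dG unfold was derived against a sequence-predicted unfolded-state K50 (Tsuboyama et al. method). Sequences shown include variable-length N-terminal GS-type padding (SAGGSAGG...) inside a display construct carrying a PA tag. Rows were kept only if the AF2 dimer inter-PAE was >15, to exclude likely homo-oligomers.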

[2] = folding stability dG unfold (combined trypsin and chymotrypsin); higher = more stable
Protocol: as §1

Sequence	folding stability dG unfold [1] [kcal/mol]	folding stability dG unfold [2] [kcal/mol]
SAGGSAGGSAGELPEGAKVEVREETFTRPDGYLVKRTEVRLEDTDELVTSEEVIEPGEEPSAGGSAGGSAGG [r11_338_TrROS_Hall]	0.899 ± 0.086	0.378 ± 0.06
SAGGSSLPPDVTLVEEEKVVETPDGTTIKVKTTTAVSAEGTVRRPVTETITYPEKPETIEKETEIDASAGGS [r16_563_JUSTAS]	0.405 ± 0.15	0.122 ± 0.33
SAGGSAKLPPGQRVRLEIEHPAHGWTHEHTFPIKSVEEFKQSLEIPMPNPNGEPMPMRVKILDVEKSAGGSA [r15_797_TrROS]	-0.363 ± 0.48	< -1
SAGGSAGGSAGMRITVEPDRVVVHPPGGEEIVMPAPEWGEEEVLALAEEHPDVEVEPVPPSAGGSAGGSAGG [r17_545_JUSTAS]	-1.01 ± 0.37	< -1
SAGGSAPKIYSVEEKELPDNYRLIVFKADKSDPEFIEEIAELLPKEKVEPLSKSEDGYYVVRLPLESAGGSA [r15_386_TrMRF]	0.0639 ± 0.23	-0.0414 ± 0.26
SAGGSAGGSAGVVYPLAGRPVRIDTSATDSLVVTTEPPDGTRTTRTYPDMDLDEVLAALASAGGSAGGSAGG [r11_934_JUSTAS]	0.639 ± 0.072	0.0129 ± 0.12
SAGGSAGGSAGRKTLPMRNPNNGHEVTAEIEDENGKPIKIEAPMNSPEMRDMARDFAKKISAGGSAGGSAGG [r11_119_TrROS]	0.355 ± 0.13	-0.154 ± 0.18
SAGGAPAAGDVVETETLRLERDEPDTITLTRLRTVEVVLPDGRVLTRTESETVRLEATDEEAVELAESSAGG [r13_544_TrMRF]	0.883 ± 0.22	0.397 ± 0.14
SAGGSAGGSSPKAQRLQDRIRQEFPPNEIDKVEMSGDKIVIHGRPGYRQRIQEELGLKNIEIVSAGGSAGGS [r12_748_TrROS]	0.344 ± 0.098	0.0708 ± 0.13
SAGGGPGSVSPQPFEEDYTLPDPGEKIRVKVTAYTLPDGSVVERAVSPEPEREFVFTRDGETVTVTPESAGG [r13_117_JUSTAS]	0.612 ± 0.088	0.116 ± 0.12
SDKDEKVIPSTSTSTDPETGTVTTTSTNTTITKGKIISPTTVTTTYPTATTTTTSTTIVDPNGNITTINSSA [r9_1015_JUSTAS]	0.97 ± 0.042	0.299 ± 0.14
SAGGSALPPGQKIKMKFPDDGKKMTITFNPGQNNIEIENDGKKETYPFDSVEDLLDEFGWKVLDIESAGGSA [r15_500_TrROS]	0.465 ± 0.073	-0.0488 ± 0.19
SAGGGSSVTYDPATGEVTVTLHPVDPHPGRLRSRTLPLPAPGSPEEVRERIRALVEAEPAWSTDLTAASAGG [r13_284_JUSTAS]	0.892 ± 0.12	0.423 ± 0.18
SAGGEITIVIEGMSEEEREKALEEVRNKIKELKEKHPEKKITIVVDTPEAKKVAEELKKEGYEVEILSAGGS [r16_450_TrROS_Hall]	2.06 ± 0.15	2.86 ± 0.43
SAGGSAGGSAGSPNYIPKEVTIKVEGEGKPVEVKIKLTTSPEGKPASEEEILKKAEELLKSAGGSAGGSAGG [r17_373_JUSTAS]	0.372 ± 0.058	0.0156 ± 0.34
SAGSVTPLPNGEVVTLTTEKIGNEVYLVTKTTLPDGSVETETTPLKPTPPPPAVPVDVSNPYRAKLALASAG [r5_715_JUSTAS]	-0.472 ± 0.35	-0.814 ± 0.33
SAGGSAGGSAGGKTYYVTGKLYLKDKPRVIEVKLPYPSELEEEAPERVKKLAEELAKEESAGGSAGGSAGGS [r10_313_TrMRF]	-0.394 ± 0.38	< -1
SAGGPPDKSVTVTVTDEKGNPITYPVTASKPVPVYLDDPEKKLEFTVPPDSDFTAPVPPGRVSVDLRSAGGS [r16_456_JUSTAS]	0.637 ± 0.046	0.202 ± 0.12
SAGGSAGGSAWYIRIKSPELRKKLKNAGGIKPTEREPNWVTFKFPGMPPKKRDKIRELIKDSAGGSAGGSAG [r3_398_TrROS]	-0.644 ± 0.49	-0.969 ± 0.26
SAGGSAGGSASSVSSLSEETLPDGKPVLVRKETVYDPKHGLTGLSVTYYTLGGKKLKTEVVSAGGSAGGSAG [r3_154_JUSTAS]	-0.477 ± 0.26	-0.698 ± 0.22
SAGGSAGGSAGGSLAPALAAAIAPLLPKDGTFVFVAEPVGDRLVIVTETRPLREDEERGSAGGSAGGSAGGS [r4_350_TrMRF]	0.496 ± 0.047	-0.707 ± 0.25
SAGGSAGGSAVVYDENTAIVKTPNKDYLLKVKVGDTVDIPDSAGIPVPVKVEKDFPIPPSELSAGGSAGGSA [r18_244_JUSTAS]	-0.38 ± 0.12	-0.943 ± 0.43
SAGGSAGGSADPAFEALARAEGVPVEVTREGDTLVVTARRPDPAGREVVEEFRVPVPPELLESAGGSAGGSA [r18_27_JUSTAS]	-0.174 ± 0.14	< -1
SAGGSAGGSGYSVSVSEDFSSSPETRTVTTTTTSPSSGPLVTTTTTTTSPIPPRTPAEVAAAASAGGSAGGS [r12_841_JUSTAS]	0.697 ± 0.029	0.327 ± 0.048
SAGGLTLSTFESDEDVKPEWDPNKPVKVKVKTLTTTEPVPNRPHTVTTTTTLRENEEGTTPFTGTDTSAGGS [r16_300_JUSTAS]	0.612 ± 0.061	-0.11 ± 0.12

Sequence	folding stability dG unfold [1] [kcal/mol]	folding stability dG unfold [2] [kcal/mol]
SAGGSAPKRLRIKFKDPDGKTQKIKIPPGIKSINIQPNNDYVSLMIHNPEDGQSRMLPPMRVDEITSAGGSA [r15_133_TrROS]	-0.899 ± 0.48	< -1
SAGGSAGGSAGGGMITFSSESVEEFGSVTPVNVVRRVTRYTTKVGDTIIETTEEEVVPLESAGGSAGGSAGG [r7_248_JUSTAS]	-0.049 ± 0.4	-0.368 ± 0.28
SAGGSAGGPMKPVEYEIPLPGRPITIEVNPPYGYIDIEWPPNGKERTVPMSPGQSAEDILKELFSAGGSAGG [r6_166_TrROS]	-1.41 ± 0.32	< -1
SGGATVEAFRRAPPGVRARILVEERGEELIVRLEIEGDDRRDEAEFPDPEEALARLLAAGVPVVVDELPASA [r9_1021_TrMRF]	-0.708 ± 0.76	< -1
SAGPPEPREIEIPVEGSWSDLRNQVKNVAEEAQPKGEPVQIKIEWGGRPRKYTLNDIDDVPPWMKVEIYSAG [r5_626_TrROS]	-0.0343 ± 0.48	-0.449 ± 0.74
SAGGSAGGSTITGRFESPEGINELANEFPGVEIFEDPENNWIYVEIEIKPPPPPPPEDQKNNKSAGGSAGGS [r20_191_TrROS]	0.916 ± 0.078	0.35 ± 0.3
SAGGGSSSSSIATETFTKEVEVPTEDGKLKKVLVTTTVSRPISLEPKTGKKYSLSTTVTTTTVSPEELSAGG [r13_312_JUSTAS]	-0.461 ± 0.58	< -1
SAGGSAGGSAGGSGGVTVSQYEGGKATRTVTSFDPVNNSTSTTTTTTFTIPPDEPVTVSSAGGSAGGSAGGS [r10_1153_JUSTAS]	0.236 ± 0.2	-0.371 ± 0.29
SAGVRKIPIESADDLRDEIDKSPGPVIIRNKGNKKYHRIDPDDLNNFAKNGAPIEIMPPDEMPPEMRKQSAG [r5_677_TrROS]	-0.0447 ± 0.14	-0.332 ± 0.17
SAGMTVEEAAKEAIEKIPPTTKEVEFEIDLGEKPLIVKIENIPDPETNKPIPKVIVEDPDEPKKVEFEISAG [r5_236_TrMRF]	0.104 ± 0.13	–
SAPDMQITDVEISEVEKNPDGKRTIEIWMRMDNYTYKATFPADKDGKIKKLSMERDPENNWMRHKIEIDSAG [r14_189_TrROS]	0.283 ± 0.34	–
SADWLSVPFELLEEKPPPADKPLPEGSSAEVVVEDPLRPGEPIKLEVFYFPEKGILILRYEGKEIEIKVGSA [r9_243_JUSTAS]	0.673 ± 0.49	–
SAGGSAGGSMYYLIKTKPPDGKEEYIIDPLPPGGSIEDIIPEDLEIEEIKPFKSKEEAEKYLKSAGGSAGGS [r20_18_JUSTAS]	0.516 ± 0.46	–
SAGGSAGGSAGMVETTSEEEAAAVIAEARAAGVPVTLVLKNPDGTTVTTPVEVVVPPDAPSAGGSAGGSAGG [r17_462_JUSTAS]	–	< -1
SAGGSAGGSAGGPTVKVKKVELAPETGYAVVHFEVELEGEPKVVEGELVLPLPPPLDAPSAGGSAGGSAGGS [r10_541_TrMRF]	–	< -1
SAGGSAGGSAEEILELFPDLELLEVDPVEPRALVRRSDDSWLRVNLATGEAEEVGPGEAERESAGGSAGGSA [r18_381_TrMRF]	–	< -1
SAGGSAGGSSLAEEIARLLGLESETLSESVSPTPRSLTLTRFKPPEDGELIVFYDGEVPTILPSAGGSAGGS [r12_279_JUSTAS]	–	< -1
SAGGSAGGMEAVLEALKELPPDEEKVITVPHPDDPRYVVRFTLRRKGDEIEIPVEKKPIPPGLASAGGSAGG [r6_392_TrMRF]	–	< -1
MKVLKTETKPIPGSGKIEVRVEYEVDGFFDPATGKPYSPDYLVTEKKTITVPPDSDDEIVTSSITFHPNLKS [r1_147_JUSTAS]	–	< -1
SAGGSAGGSAPFTAKEAADYAAWKIQKRLKKEGNPDKEITIKAPIEWDPEDGIFRAKIQIEYSAGGSAGGSA [r18_517_TrROS]	–	< -1
SAGGSAEPKPGVKAILFNENGEPIKEVSENEEILLPNGTPTKVYRLPDNSSIATHPDGYVALFVEGSAGGSA [r15_845_TrMRF]	–	< -1
SAGGGMEIVTTKESTLPEDVKVKESTTTFPDGTSIKTVTLTSPKPGDTKTITIPVKPGGPGLSTTVTESAGG [r13_323_JUSTAS]	–	< -1
SAGGDYVSITIDDPNPGMPPEELAQEIIRELNPDGFPIKPKKIEPERHDGRPKVTITFRVDDPEAIKKSAGG [r13_979_TrROS]	–	< -1
SAGGSAGGITVTIDMNEGYYRIKVEYPGNGKKREIPISGPPDDLASELEDEFGYPVKDVEIEKWSAGGSAGG [r6_763_TrROS]	–	< -1
SAGGSAGGSAGGSMSWDDRPPVISTSVVKLPIEPGTVVKEGSKTYVAKPDGTVTVIDPRSAGGSAGGSAGGS [r4_394_JUSTAS]	–	< -1
